These results are taken from the supplement of paper PMC9170038.

Data set [1] deals with MS2 coat protein. As to the kind of experiment: apparent KD of MS2 coat protein; designed switch direction (-1 OFF switch, 1 ON switch): 1; higher = weaker reporter binding. The method in brief:
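Apparent KD, taken as the median over clusters for each design, was obtained by curve-fitting normalised cluster fluorescence. Designed RNA switches had been transcribed on Illumina chips by stalled E. coli RNA polymerase and titrated with SNAP-549-labelled MS2 coat protein, doubling from 0.7 or 1.5 nM to 3 µM.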

In data set [2] the test system is MS2 coat protein. As to the kind of experiment: apparent KD of MS2 coat protein; higher = weaker reporter binding. The note with it: Eterna round: R107. In outline: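 Designed RNA switches were transcribed on-chip from Illumina sequencing clusters. SNAP-549-labelled MS2 coat protein was titrated onto them in twofold steps from 0.7 or 1.5 nM to 3 µM in 100 mM Tris-HCl pH 7.5, 80 mM KCl, 4 mM MgCl2, either without or with constant ligand. Apparent KD reflects the per-design median of normalised cluster binding-curve fits.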

Setting [3] is: Eterna round: R95, input ligand: FMN 200 uM.
[4] abbreviates: Eterna round: R95, input ligand: microRNA oligo, concentration not stated.
The mark [5] stands for this setting: Eterna round: R95, input ligand: none.
[6] abbreviates: input ligand: microRNA oligo, concentration not stated.
Where [7] appears, read: input ligand: theophylline 20 uM.
[8] abbreviates: input ligand: theophylline 2 mM.
[9] abbreviates: input ligand: tryptophan 2.4 mM.

For the sequence “AAAACACAUGAGGAUCACCCAUGUACCAGGUACAUAGGAUAUCCAGGCGCCAGAUGGCGCGGAGAAGGAUGGAAAA [Xeveoned] (puzzle: Same State 1)”, the figures for the “apparent KD of MS2 coat protein” value in the data set on MS2 coat protein [1] (setting [3]), in the data set on MS2 coat protein [1] (setting [4]) and with MS2 coat protein [1] (setting [5]) were 90.8 nM, 162 nM and 251 nM, respectively.
Regarding “AAAACAUGACGAGGAUAUGGUACAUGAGGAUCACCCAUGUAUGUACCACGACGGAAACGUCGAAUCCAGAAGGCGUCAUGAAAA [Mat - Same State NG 2 - JL mod - D25] (Eterna round: R96, puzzle: Same State NG 2)”, the results for the “apparent KD of MS2 coat protein” value in the data set on MS2 coat protein [1] (input ligand: FMN 200 uM), in the data set with MS2 coat protein [1] (setting [6]) and with MS2 coat protein [1] (input ligand: none) were 34.6 nM, 173 nM and 194 nM, respectively.
On to “AAAAGUUGCGGGCAGGAUAUGUAUUAAAAUACAUGAGGAUCACCCAUGUGCGGGUAUAACACCCGACAGAAGGGCCAAUCGCGAC [Mat - Same State 2 - Mod of UCT - D95] (puzzle: Same State 2)”, for which the “apparent KD of MS2 coat protein” value in the data set on MS2 coat protein [1] (setting [3]) worked out at 29.6 nM; in the data set with MS2 coat protein [1] (setting [4]), 160 nM; with MS2 coat protein [1] (setting [5]), 226 nM.
For “AAAAUACAUGAGGAUCACCCAUGUCUAAAGAACGGAGGAUAUAGGCGUACAAAACACGCACUAGAAGGCUGGGUGC [Tesoonge] (puzzle: Same State 1)”, the “apparent KD of MS2 coat protein” value amounted to 151 nM with MS2 coat protein [1] (setting [3]), 116 nM in the data set with MS2 coat protein [1] (setting [4]) and 155 nM in the data set with MS2 coat protein [1] (setting [5]).
For “AAAAUACAUGAGGAUCACCCAUGUGAAAAUAUGGGAGGAUAUACCGAAAAAAAAAAAAAGGUAGAAGGCCCAAAAA [SS! 1 MT 5] (Eterna round: R96, puzzle: Same State 1)”, the “apparent KD of MS2 coat protein” value in the data set on MS2 coat protein [1] (input ligand: FMN 200 uM) amounted to 39.5 nM; in the data set on MS2 coat protein [1] (setting [6]), 31 nM; in the data set on MS2 coat protein [1] (input ligand: none), 34.6 nM.
Turning to “AAACAGUCGCUGCGGCGACCACAUGAGGAUCACCCAUGUACAUAGGAUAUCGCCUAAAAUACUGGCGAGAAGGGUGAUUAAAGA [Vegeonor] (Eterna round: R96, puzzle: Same State NG 3)”, the figures for the “apparent KD of MS2 coat protein” value with MS2 coat protein [1] (input ligand: FMN 200 uM), with MS2 coat protein [1] (setting [6]) and with MS2 coat protein [1] (input ligand: none) were 90.4 nM, 12.4 nM and 55.9 nM, respectively.
For “AAACGGCCGAACGGAGGACCACAUGAGGAUCACCCAUGUACAUAGGAUAUCAUGCCAACGAGGCAUGAGAAGGGUGAUUAAAAC [Ribigeso] (Eterna round: R96, puzzle: Same State NG 3)”, the results for the “apparent KD of MS2 coat protein” value with MS2 coat protein [1] (input ligand: FMN 200 uM), with MS2 coat protein [1] (setting [6]) and in the data set with MS2 coat protein [1] (input ligand: none) were 126 nM, 27.6 nM and 32 nM, respectively.
As to “AAACUGGAGGACAAGGAUAUGUGCUCUACGACAUGAGGAUCACCCAUGUGAGACGUAGUAGUGAAACAGAAGGUGUCCUAUUGUA [Tiarri] (Eterna round: R96, puzzle: Same State 2)”, the “apparent KD of MS2 coat protein” value in the data set on MS2 coat protein [1] (setting [6]) was 14.2 nM.
With “AAAGAAAACAUAGGAUAUGUAACAUGAGGAUCACCCAUGUGUAGCCCGUAAGGGAUGACGGAUGGACAGAAGGAUGGUCUCAGG [Default title] (Eterna round: R96, puzzle: Same State NG 2)”, the results for the “apparent KD of MS2 coat protein” value in the data set with MS2 coat protein [1] (input ligand: FMN 200 uM), in the data set on MS2 coat protein [1] (setting [6]) and in the data set on MS2 coat protein [1] (input ligand: none) were 403 nM, 155 nM and 104 nM, respectively.
“AAAGCAAUGGUACAGGAUAUGUACGGUCGUACAUGAGGAUCACCCAUGUCGCUGGAAAGGUAGAUACAGAAGGGUGCCCAUGCGU [Riintile] (puzzle: Same State 2)”: the figures for the “apparent KD of MS2 coat protein” value in the data set with MS2 coat protein [1] (setting [3]), in the data set on MS2 coat protein [1] (setting [4]) and with MS2 coat protein [1] (setting [5]) were 34.4 nM, 161 nM and 210 nM, respectively.
In the same order, the values of “AAAGCCCGUGCUAAGGAUAUGCGUACUCCUACAUGAGGAUCACCCAUGUCCCGCCGAAAAGGAAGGCAGAAGGUAGCACGAGCAA [Teerarti] (puzzle: Same State 2)” are 53.7 nM, 96.5 nM and 102 nM.
“AAAUAAAACACAGGAUAUGCAACCAAUACGGCGGCAGAAGGGUGAGACAUGAGGAUCACCCAUGUACACGUCCCACAGACGUGC [Onlaa] (Eterna round: R96, puzzle: Same State NG 1)”: the “apparent KD of MS2 coat protein” value in the data set with MS2 coat protein [1] (input ligand: FMN 200 uM) worked out at 387 nM; in the data set with MS2 coat protein [1] (setting [6]), 243 nM; in the data set with MS2 coat protein [1] (input ligand: none) it was 175 nM.
With “AACAAGCACAUGAGGAUCACCCAUGUGAGAAUAAAACCCUCAUAGGAUAUCCGCGGUUAACUCCCGGAGAAGGGUGAGACUCCU [Edtiedus] (Eterna round: R96, puzzle: Same State NG 3)”, the “apparent KD of MS2 coat protein” value in the data set on MS2 coat protein [1] (input ligand: FMN 200 uM) was found to be 266 nM; in the data set on MS2 coat protein [1] (setting [6]), 429 nM; with MS2 coat protein [1] (input ligand: none) it was 390 nM.
“AACAAUCUAUCUGAGGAUAUCAUGAAAAAAACAUGAGGAUCACCCAUGUGCAGGAAAACUGCAUAUGAGAAGGCAGAUAGAUUGU [salish99_SS2_r3_002] (Eterna round: R96, puzzle: Same State 2)”: in the data set with MS2 coat protein [1] (setting [6]), the “apparent KD of MS2 coat protein” value worked out at 480 nM.
For “AACAAUCUAUCUGAGGAUAUCAUGAAAAAAACAUGAGGAUCACCCAUGUGCAGGAAAACUGCAUAUGAGAAGGCAGAUAGAUUGU [salish99_SS2_r3_002] (puzzle: Same State 2)”, the “apparent KD of MS2 coat protein” value in the data set on MS2 coat protein [1] (setting [3]) is 28.9 nM; with MS2 coat protein [1] (setting [4]) it was 621 nM; in the data set with MS2 coat protein [1] (setting [5]), 769 nM.
For “AACAAUCUAUCUGAGGAUAUCAUGAAAUAAACAUGAGGAUCACCCAUGUGCAUGAAAACUGCAUAUGAGAAGGCAGAUAGAUUGA [salish99_ss2_r3_038] (puzzle: Same State 2)” the same measures were 54.8 nM, 415 nM and 472 nM.
In the same order, the values of “AACAAUCUAUCUGAGGAUAUCAUGAUAAGAACAUGAGGAUCACCCAUGUGCAGGAAAACUGCAUAUGAGAAGGCAGAUAGAUUGG [Mat - Same State 2 - Mod - D19] (puzzle: Same State 2)” are 42.5 nM, 492 nM and 472 nM.
Turning to “AACAAUCUAUCUGAGGAUAUCAUUAAAUAAACAUGAGGAUCACCCAUGUGCAGGAAAACUGCAUAUGAGAAGGCAGAUAGAUUGA [salish99_ss2_r3_029] (puzzle: Same State 2)”, the “apparent KD of MS2 coat protein” value in the data set with MS2 coat protein [1] (setting [3]) came to 12.3 nM; in the data set with MS2 coat protein [1] (setting [4]) it was 46.2 nM; in the data set with MS2 coat protein [1] (setting [5]), 55.2 nM.
Take “AACAUACAUGAGGAUCACCCAUGUUCCGGCAGGACAGGAUAUACAUCGAAAGUGUUAUAAGUAGAAGGGUCAUAAA [JR_SS001_Sub012] (Eterna round: R96, puzzle: Same State 1)”: the “apparent KD of MS2 coat protein” value turned out to be 63.4 nM in the data set with MS2 coat protein [1] (input ligand: FMN 200 uM), 56.6 nM in the data set with MS2 coat protein [1] (setting [6]) and 79.8 nM in the data set with MS2 coat protein [1] (input ligand: none).
Regarding “AACAUGUGGUGUCACAUGAGGAUCACCCAUGUGGUAAAACCUGAGGAUAUAACGAACCAAAUCAAUUAGAAGGUAGGAUCACAA [AK SSNG3-V2-18] (Eterna round: R96, puzzle: Same State NG 3)”, the figures for the “apparent KD of MS2 coat protein” value in the data set on MS2 coat protein [1] (input ligand: FMN 200 uM), with MS2 coat protein [1] (setting [6]) and in the data set with MS2 coat protein [1] (input ligand: none) were 59.7 nM, 46.5 nM and 64.2 nM, respectively.
Consider “UUGCCCAGUACGGCCGCCACUGUGUGCAGGGAACCCAGGUCCACAUGAGGAUCACCCAUGUACAGCAGGACCGGGUACUUGCAAU [Ininladia]”, for which the “apparent KD of MS2 coat protein” value with MS2 coat protein [2] (input ligand: arginine 13.2 mM) turned out to be 8.14 nM; with MS2 coat protein [2] (setting [7]), 11.9 nM; in the data set with MS2 coat protein [2] (setting [8]), 10.6 nM.
Take “UUGGUACAUGAGGAUCACCCAUGUACUGAAGGAGCGGGACGAAUCUCAGGUAGGUCGCAGACAUGAGGAUCACCCAUGUAUUGGU [Exclusion Arginine A GF 16]”: the “apparent KD of MS2 coat protein” value with MS2 coat protein [2] (input ligand: arginine 13.2 mM) was 18.9 nM; in the data set with MS2 coat protein [2] (input ligand: none) it was 13 nM; with MS2 coat protein [2] (setting [7]), 16.4 nM; in the data set with MS2 coat protein [2] (setting [8]), 19 nM; in the data set on MS2 coat protein [2] (setting [9]), 16.5 nM.
In the same order, the values of “UUGUUGUUUGGAAGGAGCGUGGAUGAGUUAGAACAUGAGGAUCACCCAUGUUGGAUGAUACCGCAGGUAGGUCGCCGGGUGGUGG [11.aA]” are 141 nM, 50.7 nM, 76.4 nM, 40 nM and 51.5 nM.
With “UUGUUGUUUGGAAGGAGCGUGUAAGAUUAAGAACAUGAGGAUCACCCAUGUUUUAAGGGAGCACAGGUAGGUCGCCGGGUGGUGG [11.S]”, the “apparent KD of MS2 coat protein” value in the data set on MS2 coat protein [2] (input ligand: arginine 13.2 mM) was found to be 14.4 nM; in the data set with MS2 coat protein [2] (input ligand: none), 12.3 nM; in the data set on MS2 coat protein [2] (setting [7]), 31.5 nM; in the data set on MS2 coat protein [2] (setting [8]), 15.9 nM; in the data set with MS2 coat protein [2] (setting [9]) it was 21.5 nM.
Take “UUUGCACAUGAGGAUCACCCAUGUACAGAUACCAGCCUCAUCUACGGCCCUUGGCAGCUGAGACAAUGGUGACGUGACGGGCUUU [Erqugere]”: the figures for the “apparent KD of MS2 coat protein” value in the data set with MS2 coat protein [2] (input ligand: arginine 13.2 mM), in the data set on MS2 coat protein [2] (setting [7]) and in the data set on MS2 coat protein [2] (setting [9]) were 13 nM, 14.4 nM and 13.2 nM, respectively.
For “UUUGCACAUGAGGAUCACCCAUGUACAGAUACCAGCCUCAUCUACGGCCCUUGGCAGCUGAGACAAUGGUGACGUGAUGGGCUUU [Iserraxeso]” the same measures were 12.9 nM, 14.7 nM and 11.8 nM.
For the sequence “UUUUUCAUAGGUUAUAGUUAAGAAACUGAAGGAGCGUGGUAAUACACAGGUAGGUCGCAGAUUUUACAUGAGGAUCACCCAUGUU [JR_SSArginiA_Sub009]”, the “apparent KD of MS2 coat protein” value in the data set on MS2 coat protein [2] (input ligand: arginine 13.2 mM) was found to be 27.8 nM; in the data set with MS2 coat protein [2] (input ligand: none), 34.9 nM; in the data set with MS2 coat protein [2] (setting [7]), 31.9 nM; with MS2 coat protein [2] (setting [8]), 21.5 nM; in the data set with MS2 coat protein [2] (setting [9]), 36.4 nM.
In the same order, the values of “UUUUUUUUUUACAUGAGGAUCACCCAUGUUCGAGGACCGGUACGGCCGCCACUCGUUUUUGUUGUGGUAGGGUUAGGGUUAGGGU [Turkey Lurky]” are 19.4 nM, 43.5 nM, 92 nM, 44.8 nM and 25.5 nM.
